Drawing on PMC8659191, “Expressed Soybean Leghemoglobin: Effect on Escherichia coli at Oxidative and Nitrosative Stress” (Molecules, 2021), this text covers Km for one substance.

For this data set, the system named is CC(C)(C)OO. Nature of the data set: purified protein. The following applies: pH 7.4; 25.0 °C.

What is called Km is the concentration of substrate that gives half-maximal velocity. In the case of “Lba (soybean leghemoglobin a, recombinant, ferric metLb) (Glycine max)”, the Michaelis constant (Km) is given as 5.4 ± 0.05 mM.
